Tested on: MS2 coat protein
Assay: apparent KD of MS2 coat protein; higher = weaker reporter binding
Details: Eterna round: R107; input ligand: arginine 13.2 mM
Method in brief: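 Illumina sequencing clusters served as templates for on-chip transcription of the designed RNA switches. SNAP-549-labelled MS2 coat protein was then titrated in twofold steps from 0.7 or 1.5 nM to 3 µM, allowing 0.8–1.5 h per step at first and 10–20 min per step later. The buffer held 100 mM Tris-HCl pH 7.5, 80 mM KCl and 4 mM MgCl2, without or with constant ligand. Apparent KD is the median per design of normalised cluster binding-curve fits.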

With “AGCAUGUUAUCAGAUACCAGACAUCUUUUUUUACGUAUUACAUGAGGAUCACCCAUGUUGGUCCCUUGGCAGCUGAAAUAUUUCA [JR_Nu_SSTheophyB_Sub022]” the “apparent KD of MS2 coat protein” value was 167 nM.

Same assay, conditions: Eterna round: R107; input ligand: none

Going from “AAUAAGAUGAGGAUCACCCAUCUAAAAGAUACCAGAGUGAUGAUCCUCCCUUGGCAGCUUAACGCUGAUUGAUUACAAUCAGCGA” to “ACGAUAGGACCUGAGGAUCACCCAGGUGAUACCAGCCUGGAAACAGGCCCUUGGCAGCACCAAUACUCCAAUAACCUAUCGAAUA [TheoAX 11 #MicroSwitchBubble #AlternativeMS2]”, the “apparent KD of MS2 coat protein” value rises from 47.2 nM to 220 nM (4.7-fold).

First: UGUAUGGACUGAAGGAGCGCCUCAAACAUGAGGAUCACCCAUGUGGACAAAUAAGUCCUUGGGCAGGUAGGUCGCAGUCCAUACU [ArgBX 7 #StaticStem #MS2Late]
Second: GUAUCGACAUGAGGAUCACCCAUGUCCGAAGGAGCGUUGGGAACAACAGGUAGGUCGCGGACAUAGAGCAUCCGGAAACGGAUGC [EAA NP+V+V2 #1]
The “apparent KD of MS2 coat protein” value of the first is 5.9-fold higher: 82.8 nM for the first, 14 nM for the second.

Going from “UCGCUCUGGGUGAGAUCCGGAGAUAUGGAAGGAGCGCUGAUUCCAGCAGGUAGGUCGCCAACGGACAUGAGGAUCACCCAUGUAC [Same State - Arginine A (Freestyle 11)]” to “AUGUCUGAGUCGGCCGCCACUGGGUGUGGGUGAUGCCGGAUGUUGUACAUGAGGAUCACCCAUGUCAGGACCGGGAUUCCCACGA [Receve]”, the “apparent KD of MS2 coat protein” value falls from 46.9 nM to 10.4 nM (4.5-fold).

Going from “GGAUAGGACAGAAGGAGCGACGUGAGGCGAAAGCCAAUCCUUCAACAUGAGGAUCACCCAUGUCAGGUAGGUCGCUGUCCUAUCG [ArgBX 5]” to “ACAUAUUGGUGGUACCAACGAAGGCGGAAACGAGGACCGGUACGGCCGCCACUCGGCGACAUGAGGAUCACCCAUGUGGUUAAAA [Exclusion - Tryptophan A (Freestyle 2)]”, the “apparent KD of MS2 coat protein” value rises from 20.9 nM to 149 nM (7.1-fold).

Going from “AAAGACAUGAGGAUCACCCAUGUGGGUGGGCGAGGACCGGUACGGCCGCCACUCGUGGGCGGGAAGGGAUAUUUAAUAAGGAAGA [same state--tryptophan A 1st shot]” to “UGUAUGUGAUCUGAUACCAGAGUUGAUAAUCUGAGGAUCACCCUGGUAAGGCGAAAGCCACUCCCUUGGCAGCAGAUCGCAUACU”, the “apparent KD of MS2 coat protein” value rises from 102 nM to 306 nM (3-fold).

First: GUAGCGACGACGGCCGCCACUCACAGGUGAGGGUAGACCAACCUUCACAUGAGGAUCACCCAUGUGAGGACCGGGUUGUCGGUAC [#11 Exclusion Tryptophan B]
Second: GUCCUAGCGAGCACUCGCUAGGACGCGGAUACCAGCGAGGUCCAUCGCCCUUGGCAGCCGAACAUGAGGAUCACCCAUGUCGGUA [#1 Same State - Theophylline A Attempt #17 (HarryS)]
The “apparent KD of MS2 coat protein” value of the first is 13-fold higher: 134 nM for the first, 10 nM for the second.

First: AUACAUGAGGAUCACCCAUGUCCUCGUGAUCGAGGACCGGUACGGCCGCCACUCGGUCCUCGCGAGGAGGAGUCAAAGACUCCAA [Omei Trp A SS A v4]
Second: GGAUAGGACAGAAGGAGCGACAUGAGGAUCACCCAUGUCUACCACGUCGAAAGACGCUCAUGUCAGGUAGGUCGCUGUCCUAUCG [ArgXB 9 #StaticStem #MS2LeftOffAptamer]
The “apparent KD of MS2 coat protein” value of the first is 1.8-fold lower: 82.9 nM for the first, 153 nM for the second.

First: GGCUAGGCUAGCGAUACCAGCAACCAACAUGAUCUGAGGAUCACCCAGGUAGUUGGACGUUGCCCUUGGCAGCGCUAGCCUAGCC [SSThB NP+V+V2 #12 Diff Apt, Same Structure]
Second: ACAUGAGGAUCACCCAUGUACAUGAGGGAAGGAGCGGUACAUGUGCCAGGUAGGUCGCCCAUGAGCAUCAGCCAUGUACAUCAGC [l,ommullin]
The “apparent KD of MS2 coat protein” value of the first is 5.8-fold lower: 14.3 nM for the first, 82.7 nM for the second.

Same assay, conditions: Eterna round: R107; input ligand: theophylline 20 uM

“AAUAAGAUGAGGAUCACCCAUCUAAAAGAUACCAGAGUGAUGAUCCUCCCUUGGCAGCUUAACGCUGAUUGAUUACAAUCAGCGA” and “AGAUUCGACACGGCCGCCACUCGUGGUGGAUUACCUAGUGUCGAACAUGAGGAUCACCCAUGUACGAGGACCGGGUGUUGAGUCU [XTryp B #18]” are within 1.5-fold of each other in “apparent KD of MS2 coat protein” value: 124 nM for the first, 85.6 nM for the second.

First: UCACAUGAGGAUCACCCAUGUACAGGCGAUACCAGCCGUACAUUGGGCCCUUGGCAGCGCACCGAGACCUUUAUAAGCACCUCGG [Zaoranorre]
Second: ACACAUGAGGAUCACCCAUGUUCAAUAGAUACCAGUGAUACGGUGCACCCUUGGCAGCUGUUGCUGAGUGAUGGUUCCCUCGGUA [#23 SameState-TheophyllineA]
The “apparent KD of MS2 coat protein” value of the first is 3.8-fold higher: 207 nM for the first, 53.9 nM for the second.

First: ACGAUAGGACCUGAGGAUCACCCAGGUGAUACCAGCCUGGAAACAGGCCCUUGGCAGCACCAAUACUCCAAUAACCUAUCGAAUA [TheoAX 11 #MicroSwitchBubble #AlternativeMS2]
Second: UUAUAAGUACCGGUCCUCAGAUCCUCAUGACGAGGACCGGUACGGCCGCCACUCGAAACAUGAGGAUCACCCAUGUAAUAAUAAC [Brourdmod04]
The “apparent KD of MS2 coat protein” value of the first is 4.8-fold higher: 442 nM for the first, 92.1 nM for the second.

Compared with “UGUAUGGACUGAAGGAGCGCCUCAAACAUGAGGAUCACCCAUGUGGACAAAUAAGUCCUUGGGCAGGUAGGUCGCAGUCCAUACU [ArgBX 7 #StaticStem #MS2Late]”, “GGAUAGGACACGGCCGCCACUGCCUAGGAUACUAGAAACAUUUCCUCACAUGAGGAUCACCCAUGUAGGACCGGGUGUCCUAUCG” is 1.8-fold higher in “apparent KD of MS2 coat protein” value: 91.2 nM for the first, 161 nM for the second.

“CUGCCACAGAUAGAUACCAGAGGCGUGCAAGCUACAGCUCACAUGAGGAUCACCCAUGUUCUCCCUUGGCAGCUACGGUGUAAGG [theeternabot_exclusion_MS2_Theo_B_26]” and “GUAUCGACAUGAGGAUCACCCAUGUCCGAAGGAGCGUUGGGAACAACAGGUAGGUCGCGGACAUAGAGCAUCCGGAAACGGAUGC [EAA NP+V+V2 #1]” are within 1.5-fold of each other in “apparent KD of MS2 coat protein” value: 24 nM for the first, 16.4 nM for the second.

First: CCAUUGAUGACGGCCGCCACUGUCUACAUGAGGAUCACCCAUGUAUAGCAGGGUGGACCUAUGGACAGGACCGGGUCACUUGUCC [Tryp B Ex t7]
Second: UCGCUCUGGGUGAGAUCCGGAGAUAUGGAAGGAGCGCUGAUUCCAGCAGGUAGGUCGCCAACGGACAUGAGGAUCACCCAUGUAC [Same State - Arginine A (Freestyle 11)]
The “apparent KD of MS2 coat protein” value of the first is 4.4-fold lower: 13.7 nM for the first, 60.4 nM for the second.

“CGCGGUUGAGAUGGGCCUUUGAUAAGUCUGCGAGGACCGGUACGGCCGCCACUCGAGGACAUGAGGAUCACCCAUGUACUUCGCG [Atriera]” and “UCGGCAGUGAACGAUACCAGCGUCACGUGGCCGGUGGUCACAUGAGGAUCACCCAUGUAACGCCCUUGGCAGCGUGCGCGUACCG [Zaancebi]” are within 1.5-fold of each other in “apparent KD of MS2 coat protein” value: 81 nM for the first, 63.5 nM for the second.

Compared with “UUAAGAGGCUAUCCACUUUGAUUUUGUGAUACCAGAAUAAUUUUAUUCCCUUGGCAGCAUGACAUGAGGAUCACCCAUGUGUCUU [SSTheo A #3]”, “AUGUCUGAGUCGGCCGCCACUGGGUGUGGGUGAUGCCGGAUGUUGUACAUGAGGAUCACCCAUGUCAGGACCGGGAUUCCCACGA [Receve]” is 3.7-fold lower in “apparent KD of MS2 coat protein” value: 46.5 nM for the first, 12.7 nM for the second.

Going from “CAUCCUAGUACAUGAGGAUCACCCAUGUAUCGAGGACCGGUACGGCCGCCACUCGAAUGGCGGAUCGUUAAUCCUCUAGGAUGGA [Tryp A Ex 4a]” to “UCUGGUAUGACGGCCGCCACUAGAUCGUGAGAAGCCUGCAUACAUGAGGAUCACCCAUGUCUCACUAGGACCGGGUCAUUCCAAU [theeternabot_sameState_MS2_Trp_B_5]”, the “apparent KD of MS2 coat protein” value rises from 14 nM to 105 nM (7.5-fold).

In the case of “GAGGAAACUCACAUGAGGAUCACCCAUGUACGAGGACCGGUACGGCCGCCACUCGAAACCAUGGGCGGUAGUACGUGGAAGCUUG [Design 2 MOD 2]”, the “apparent KD of MS2 coat protein” value is reported as 31.3 nM.
